What was measured:
[1] = molecular target: T1, SARS-CoV-2 nucleocapsid (N) protein, full-length, N-terminally 6xHis-tagged (SARS-CoV-2, UniProt P0DTC9 1-419); experiment: pull-down; conditions: both partners purified
T1 construct: SARS-CoV-2 nucleocapsid (N) protein, full-length, residues 1 to 419 (419 amino acids); also called 6XHis-N protein; FL N protein; not shown: His6, N-terminal, kept

[2] = molecular target: T1, SARS-CoV-2 nucleocapsid (N) protein, …; experiment: MST; RED-NHS-labelled hnRNPA1 (5 nM) titrated with N protein, NTD, CTD or LKR+CTD; 16 two-fold dilutions from 100 μM; Monolith NT.115; single-site binding model; triplicates; conditions: both partners purified

Row | Binder | binding result [1] | Kd [2] [nM]
1 | N-terminally GST-tagged human hnRNPA1 (natural protein, UniProt P09651-2 1-320, looked up, human hnRNPA1; Prey of the Ni-NTA pull-down; The general purification method names only Ni-NTA and SEC; also called GST-hnRNPA1; source: E. coli, purified; not shown: GST, N-terminal, kept) MSKSESPKEPEQLRKLFIGGLSFETTDESLRSHFEQWGTLTDCVVMRDPNTKRSRGFGFVTYATVEEVDAAMNARPHKVDGRVVEPKRAVSREDSQRPGAHLTVKKIFVGGIKEDTEEHHLRDYFEQYGKIEVIEIMTDRGSGKKRGFAFVTFDDHDSVDKIVIQKYHTVNGHNCEVRKALSKQEMASASSSQRGRSGSGNFGGGRGGGFGGNDNFGRGGNFSGRGGFGGSRGGGGYGGSGDGYNGFGNDGSNFGGGGSYNDFGNYNNQSSNFGPMKGGNFGGRSSGPYGGGGQYFAKPRNQGGYGGSSSSSSYGSGRRF | binds | 
2 | human hnRNPA1, full-length (residues 1 to 320), fluorescently labelled (natural protein, UniProt P09651-2 1-320, looked up, RED-NHS 2nd generation dye, human hnRNPA1, full-length, residues 1 to 320 (320-residue form); Labelled protein of the MST titrations (5 nM); also called full length hnRNPA1; source: E. coli Rosetta (DE3), purified (Ni-NTA, SEC)) MSKSESPKEPEQLRKLFIGGLSFETTDESLRSHFEQWGTLTDCVVMRDPNTKRSRGFGFVTYATVEEVDAAMNARPHKVDGRVVEPKRAVSREDSQRPGAHLTVKKIFVGGIKEDTEEHHLRDYFEQYGKIEVIEIMTDRGSGKKRGFAFVTFDDHDSVDKIVIQKYHTVNGHNCEVRKALSKQEMASASSSQRGRSGSGNFGGGRGGGFGGNDNFGRGGNFSGRGGFGGSRGGGGYGGSGDGYNGFGNDGSNFGGGGSYNDFGNYNNQSSNFGPMKGGNFGGRSSGPYGGGGQYFAKPRNQGGYGGSSSSSSYGSGRRF |  | ~180
